Experimental data from article PMC11276760.

Target: integrin β1 (on KYSE410 ESCC cells) (UniProt P05556)
Test: flow cytometry (cell binding)
Details: 0.01 M PBS, 4.5 g/L glucose, 5 mM MgCl2, 1 mg/mL BSA, 0.1 mg/mL yeast tRNA, 30 min on ice, ~1e5 cells, pH not stated

Chain of integrin β1 (on KYSE410 ESCC cells) (P05556 21-798): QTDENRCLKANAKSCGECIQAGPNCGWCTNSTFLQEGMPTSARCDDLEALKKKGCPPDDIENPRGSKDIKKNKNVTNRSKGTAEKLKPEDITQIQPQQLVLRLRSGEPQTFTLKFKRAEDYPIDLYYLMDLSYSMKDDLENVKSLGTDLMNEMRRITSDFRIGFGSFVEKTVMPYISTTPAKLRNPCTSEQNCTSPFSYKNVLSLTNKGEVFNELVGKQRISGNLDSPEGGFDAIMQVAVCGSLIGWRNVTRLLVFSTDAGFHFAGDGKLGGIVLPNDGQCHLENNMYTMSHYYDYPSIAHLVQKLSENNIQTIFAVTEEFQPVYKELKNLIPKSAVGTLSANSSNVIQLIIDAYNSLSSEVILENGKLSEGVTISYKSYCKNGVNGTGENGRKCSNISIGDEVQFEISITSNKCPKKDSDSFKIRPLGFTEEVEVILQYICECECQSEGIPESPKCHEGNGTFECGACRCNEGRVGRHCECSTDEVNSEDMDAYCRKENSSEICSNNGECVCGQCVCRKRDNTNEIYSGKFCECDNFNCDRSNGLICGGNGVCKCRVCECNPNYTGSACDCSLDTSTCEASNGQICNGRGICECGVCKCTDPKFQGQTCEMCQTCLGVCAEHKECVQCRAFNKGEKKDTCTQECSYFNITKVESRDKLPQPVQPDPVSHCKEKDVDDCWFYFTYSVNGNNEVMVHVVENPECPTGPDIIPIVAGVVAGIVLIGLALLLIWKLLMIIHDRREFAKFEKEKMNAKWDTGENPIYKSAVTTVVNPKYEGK

**Q.** Which Kd does the source give for “CGCGAATGCTATCGGGGCTAAGTATCAAAATGAGC [A2(35)]” here?
**A.** 58.1 nM

**Q.** Which Kd does the source give for “CGTCGTCGTCGTCGTCGTTTTCGCGAATGCTATCGGGGCTAAGTATCAAAATGAGC / ACGACGACGACGACGACGTTTCGCGAATGCTATCGGGGCTAAGTATCAAAATGAGC [BAD (bivalent aptamer-DNA carrier)]” here?
**A.** 7.7 nM
